Test results reported in patent publication US8669345 (Biogen, dated 2014).

Assays:
[1] = molecular target: T1, 15 kDa acid fragment of sNgR310 (aa 27-aa 122) (rat, UniProt Q99M75 27-122); test: western blot
T1 construct: acid cleavage product of rat sNgR310
T1 chain: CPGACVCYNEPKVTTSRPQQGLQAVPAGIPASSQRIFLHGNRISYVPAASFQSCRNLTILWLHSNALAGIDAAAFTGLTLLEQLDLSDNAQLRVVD
Protocol: (§1) A recombinant fragment of the rat NgR1 that contains all 8 LRR domains and the N- and C-terminal caps (sNgR310) was treated with either acid or cyanogen bromide (CNBr) and separated the fragments by gel electrophoresis.

[2] = molecular target: T2, 35 kDa CNBr fragment of sNgR310 (aa 27-aa 229) (rat, UniProt Q99M75 27-229); test: western blot
T2 construct: CNBr cleavage product of rat sNgR310; also called 33/35 kDa doublet
T2 chain: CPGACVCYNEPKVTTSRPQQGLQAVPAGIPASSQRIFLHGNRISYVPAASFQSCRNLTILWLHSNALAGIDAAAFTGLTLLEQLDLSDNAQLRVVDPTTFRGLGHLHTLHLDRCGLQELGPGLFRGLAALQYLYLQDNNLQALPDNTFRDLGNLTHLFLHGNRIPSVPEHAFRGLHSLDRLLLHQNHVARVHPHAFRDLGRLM
Protocol: as §1

[3] = molecular target: T3, 10 kDa CNBr fragment of sNgR310 (aa 241-aa 310) (rat, UniProt Q99M75 241-310); test: western blot
T3 construct: CNBr cleavage product of rat sNgR310
T3 chain: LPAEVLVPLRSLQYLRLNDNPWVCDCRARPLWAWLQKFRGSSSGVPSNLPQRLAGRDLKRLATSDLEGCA
Protocol: as §1

[4] = molecular target: T4, peptide LDLSDNAQLR (Wild-type Fragment) (rat); test: MS of peptides bound by 7E11
T4 peptide: LDLSDNAQLR

[5] = molecular target: T5, peptide LDLSDDAELR (deaminated wild-type fragment); test: MS of peptides bound by 7E11
T5 construct: deamination at Asn115 and Gln117
T5 peptide: LDLSDDAELR

[6] = molecular target: T6, peptide LDLASDNAQLR (Scrambled Fragment #1); test: MS of peptides bound by 7E11
T6 peptide: LDLASDNAQLR

[7] = molecular target: T7, peptide LDLASDDAELR (Scrambled Fragment #1, deaminated); test: MS of peptides bound by 7E11
T7 peptide: LDLASDDAELR

[8] = molecular target: T8, peptide LDALSDNAQLR (Scrambled Fragment #2); test: MS of peptides bound by 7E11
T8 peptide: LDALSDNAQLR

[9] = molecular target: T9, peptide LDALSDDAELR (Scrambled Fragment #2, deaminated); test: MS of peptides bound by 7E11
T9 peptide: LDALSDDAELR

[10] = molecular target: T10, peptide LDLSSDNAQLR (Scrambled Fragment #3); test: MS of peptides bound by 7E11
T10 peptide: LDLSSDNAQLR

peptide DNAQLRVVDPTT = molecular target: T11, peptide DNAQLRVVDPTT (rat); test: endoprotease Asp-N digest of p-617
T11 peptide: DNAQLRVVDPTT

[11] = molecular target: T12, peptide LDLSDNAALRVVDPTT (Q117A); test: ELISA, peptides immobilized on MaxiSorp plate
T12 construct: also called Gln17Ala (so in the source)
T12 peptide: LDLSDNAALRVVDPTT

[12] = molecular target: T13, peptide LDLSDNAQLHVVDPTT (R119H); test: ELISA, peptides immobilized on MaxiSorp plate
T13 construct: also called Arg119His; R11911 (so in the source)
T13 peptide: LDLSDNAQLHVVDPTT

[13] = molecular target: T14, tryptic peptide AAAFTGLTLLEQLDLSDNAQLR (rat); test: tryptic digest of sNgR310, MS and sequence analysis
T14 construct: tryptic digest peptide of rat sNgR310
T14 peptide: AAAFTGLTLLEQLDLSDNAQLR

[14] = molecular target: T15, Nogo receptor-1 (species and construct not stated); test: surface plasmon resonance (BIAcore) per the text; NgR1 construct not stated
T15 sequence (Q9BZR6 27-447, species assumed, looked up): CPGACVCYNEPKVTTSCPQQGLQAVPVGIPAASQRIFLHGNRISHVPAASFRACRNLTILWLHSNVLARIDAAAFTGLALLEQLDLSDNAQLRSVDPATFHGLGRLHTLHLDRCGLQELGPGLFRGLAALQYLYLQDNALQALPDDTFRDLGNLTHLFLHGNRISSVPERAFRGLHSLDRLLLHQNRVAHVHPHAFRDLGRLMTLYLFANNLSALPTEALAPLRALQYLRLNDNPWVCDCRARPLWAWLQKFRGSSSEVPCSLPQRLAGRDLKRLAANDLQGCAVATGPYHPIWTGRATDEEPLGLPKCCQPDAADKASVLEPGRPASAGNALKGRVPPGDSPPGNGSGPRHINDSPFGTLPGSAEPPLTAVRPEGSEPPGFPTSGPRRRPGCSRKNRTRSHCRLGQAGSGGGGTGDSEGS

B1: monoclonal antibody 7E11 (antibody, V domains shown)
VH: VQLQESGAELVMPGASVKMSCKASGYTFTDYWMHWVKQRPGQGLEWIGAIDPSDSYSSYNQNFKGKATLTVDGSSSTAYMQLSSLTSEDSAVYYCARRITEAGAWFAYWGQGTTVT
VL: DVVMTQTPLSLPVSLGDQASISCRSSQSLVHSNGNTYLHWYLQKPGQSPKLLIYKVSNRFSGVPDRFSGSGSGTDFTLKISRVDAEDLGVYFCSQSTHVPFTFGGGTKLEIKR
notes: murine IgG1, kappa; immunogen: peptide of rat NgR1 residues 110-125; also called mAb 7E11; HB 7E11 (ATCC PTA-4587)
binds: binding result [1] | binding result [2] | binding result [4] | binding result [5] | binding result [6] | binding result [7] | binding result [8] | binding result [9] | binding result [10] | binding result (peptide DNAQLRVVDPTT) | binding result [13]
30 fold: fold increase of EC50 against the original peptide [11]
100 nM: Kd [14]
no binding: binding result [3]
25 fold: fold increase of EC50 against the original peptide [12]
